Data: article PMC5119734

Legend:
[1] = biological target: Group B Streptococcus glyceraldehyde 3-phosphate dehydrogenase, wild type (Streptococcus agalactiae (Group B Streptococcus)); experiment: crystal structure; hanging drop vapor diffusion at 295 K, 20-28% PEG4000, 0.1 M MES pH 6.5; apo, mixed-holo, holo (2 mM NAD) and ternary (2 mM NAD, 11 mM DL-G3H) crystals; four subunits in the asymmetric unit
[2] = biological target: Group B Streptococcus glyceraldehyde 3-phosphate dehydrogenase, wild type (Streptococcus agalactiae (Group B Streptococcus)); experiment: SEC; Superdex 200 in 25 mM Hepes, 100 mM NaCl, 5 mM beta-mercaptoethanol, pH 7.35

Substance: Group B Streptococcus glyceraldehyde 3-phosphate dehydrogenase, wild type (enzyme)
- stoichiometry N [1]: 4
- stoichiometry N [2]: 4
